No end group written: not given here.
Tests used:
[1] = molecular target: T1, Taf14 YEATS domain (residues 1-132) (S. cerevisiae, UniProt P35189 1-132); assay: NMR titration
T1 sequence (looked up): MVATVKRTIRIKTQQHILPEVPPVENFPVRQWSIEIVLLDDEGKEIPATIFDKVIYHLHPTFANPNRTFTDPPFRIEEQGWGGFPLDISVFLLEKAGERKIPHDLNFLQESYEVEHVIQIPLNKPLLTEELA

[2] = molecular target: T2, Taf14 (residues 1-138) (S. cerevisiae, UniProt P35189 1-138); assay: crystal structure
T2 sequence (looked up): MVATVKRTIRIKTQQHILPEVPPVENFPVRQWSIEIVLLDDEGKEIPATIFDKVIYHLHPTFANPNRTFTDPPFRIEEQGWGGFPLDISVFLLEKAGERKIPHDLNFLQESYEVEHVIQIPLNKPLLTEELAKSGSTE

Ac-QTARK(Ac)STGG (peptide, UniProt P68431 6-14, looked up) [H3K9ac(5-13) peptide]: binds [1]; binds [2].

Source: PMC4573853 (Genes & Development, 2015)
